Patent US20250388694A1

Molecular target: Human TCTP (translationally controlled tumor protein) (human) (UniProt P13693)
Test: SPR, Biacore 8K, human TCTP immobilised on CM5 chip, antibody as analyte, 1:1 model

Sequence of Human TCTP (translationally controlled tumor protein) (human) (P13693 whole entry): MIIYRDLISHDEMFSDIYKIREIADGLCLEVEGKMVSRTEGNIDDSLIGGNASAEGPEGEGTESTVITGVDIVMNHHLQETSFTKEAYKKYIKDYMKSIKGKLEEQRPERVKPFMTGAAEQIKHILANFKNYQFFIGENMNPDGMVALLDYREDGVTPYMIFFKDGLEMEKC

Kd: 263 nM
B1: 55F3 (antibody, from another filing, V domains shown)
VH: DVQLQESGPGLVKPSQSLSLTCTATGYSIASDYAWNWIRQFPGNKLEWMGYINYSGSTGYNPSLKSRISITRDTSKNQFFLQLNSVTTEDTATYYCARFEAGYWGQGTTLTVSS
VL: DIKMTQSPSSMSASLGERVTITCKASQDINRYLSWFQQKPGKSPKTLIYRANRLVDGVPSRFSGSGSGQDYSLTISSLEYGDMGIYYCLQYNEFPLTFGAGTKLELKR
